Patent US20180105584A1 (published 2018)

Molecular target: SpA on the surface of live S. aureus TCH1516 (USA300 MRSA strain) (Staphylococcus aureus strain USA300 …, UniProt A0A0H3K686 37-508)
Assay: cell-based or functional assay

B1: 10901_QRF (Lys274Gln, His435Arg, Tyr436Phe Fc mutant), CHO expressed IgG1 (antibody)
heavy: EVQLVQSGAEVKKPGASVKVSCKASGYTFSHYYMHWVRQAPGQGLEWMGIINPRYGSTSYAQKFQGRVTMTRDTSTSTVYMELSSLRSEDTAVYYCARDGEVGARDLGWFDPWGQGTLVTVSSASTKGPSVFPLAPSSKSTSGGTAALGCLVKDYFPEPVTVSWNSGALTSGVHTFPAVLQSSGLYSLSSVVTVPSSSLGTQTYICNVNHKPSNTKVDKKVEPKSCDKTHTCPPCPAPELLGGPSVFLFPPKPKDTLMISRTPEVTCVVVDVSHEDPEVQFNWYVDGVEVHNAKTKPREEQYNSTYRVVSVLTVLHQDWLNGKEYKCKVSNKALPAPIEKTISKAKGQPREPQVYTLPPSRDELTKNQVSLTCLVKGFYPSDIAVEWESNGQPENNYKTTPPVLDSDGSFFLYSKLTVDKSRWQQGNVFSCSVMHEALHNRFTQKSLSLSPG
light: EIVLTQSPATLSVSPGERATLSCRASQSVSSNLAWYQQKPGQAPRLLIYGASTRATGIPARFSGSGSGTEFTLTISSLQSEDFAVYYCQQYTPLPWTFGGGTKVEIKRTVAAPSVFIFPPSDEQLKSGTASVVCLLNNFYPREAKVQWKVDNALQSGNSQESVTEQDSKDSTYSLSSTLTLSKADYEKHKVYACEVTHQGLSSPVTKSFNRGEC
- killing of S. aureus in opsonophagocytic killing (OPK) assay with human PMNs: ~80%
